Measurements from article PMC6815381, “Unravelling the diversity of glycoside hydrolase family 13 α-amylases from Lactobacillus plantarum WCFS1” (Microbial Cell Factories, 2019).

B1: Lp_2757, maltogenic α-amylase (Lactiplantibacillus plantarum WCFS1) (protein)
chain: MQLAGIRHRPESEDTAVLAAHQLQVRLQTARDDVAQVEILFADSYLWQEGTTALERRIMQPGLATQGNQYWQTTLTVPTNRVVYAFLITDTIGATVGYGEGGFFDDVATNWQTVGNYFHMPYMHVSDAELPPAWVKETVWYQIFPERFANGVRQNDPANVQPWGAGRVHRDSFYGGDLPGITAHLDDLAALGVNGLYLCPIFTSPSNHKYDTIDHFEIDPHFGTKADFQALVDGAHARGMRVMLDAVFNHFGEQSPQWQDVIKNGEQSRFADWFHIHGWPVGRDPKTKRLNYETFATGAAMPKVNTQNPAVQAYLIDVTKYWIEQFGIDAWRFDVADEVDHGFWRALCGALRAIKPDVYLLGESWHSSQSLVGNGQFNAVMNYPLTQPILALFNGQLNPEDYVGKTNLELMMYRQPNQQAMFNALDTHDTPRLLTTLHGQLTKFKSALTLLMLLPGSPCIYYGTEVAMAGGADPDNRRCMNWQPDEQEQQVRQFVTRLIKFRRQQADFLATSQLTWTIDGHCLILTRTDVEQTIQGRFNLGAQAVSTVSGVSPILTAGITANEMAPGGFELTVA
notes: gene 1722 bp
B2: Lp_0179 (Amy2), maltose-forming α-amylase (Lactiplantibacillus plantarum WCFS1) (protein)
chain: MARDTQTQLRNEMIYSVFVRNYSEAGNFAGVTADLQRIKDLGTDILWLLPINPIGEVNRKGTLGSPYAIKDYRGINPEYGTLADFKALTDRAHELGMKVMLDIVYNHTSPDSVLATEHPEWFYHDADGQLTNKVGDWSDVKDLDYGHHELWQYQIDTLLYWSQFVDGYRCDVAPLVPLDFWLEARKQVNAKYPETLWLAESAGSGFIEELRSQGYTGLSDSELYQAFDMTYDYDVFGDFKDYWQGRSTVERYVDLLQRQDATFPGNYVKMRFLENHDNARMMSLMHSKAEAVNNLTWIFMQRGIPLIYNGQEFLAEHQPSLFDRDTMVADRHGDVTPLIQKLVTIKQLPLLRAADYQLAVVEEGIVKITYRAAGEALTAWIPLKGQVTAVATKLAAGSYQNLLTDGPTEVVDGKLTVDGQPVLIKYVTNTAVTKVADQSN
notes: gene 1320 bp

Substrate: O=[N+]([O-])c1ccc(O[C@H]2O[C@H](CO)[C@@H](O[C@H]3O[C@H](CO)[C@@H](O)[C@H](O)[C@H]3O)[C@H](O)[C@H]2O)cc1
Assay: purified protein
Format: biochemical, Lactiplantibacillus plantarum
Details: 50 mM MOPS pH 7.0, 20 mM NaCl, 1 mM DTT, 30 °C, substrate 0-10 mM

| Protein | Km | Vmax | kcat |
| --- | --- | --- | --- |
| B1 | 620 ± 120 µM | 0.016 µmol/min | 4.9142 ± 1.67e-05 s⁻¹ |
| B2 | 320 ± 70 µM | 0.017 µmol/min | 3.856 ± 3.33e-05 s⁻¹ |
